The target of one experiment is T1, feline NGF (feline).
T1 chain: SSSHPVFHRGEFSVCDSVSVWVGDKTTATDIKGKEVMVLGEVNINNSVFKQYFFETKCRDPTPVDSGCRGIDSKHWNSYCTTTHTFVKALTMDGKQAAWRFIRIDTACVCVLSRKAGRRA
As to the kind of experiment: SPR, Biacore 3000, feline NGF. Here is the method: Affinities of selected felinized anti-NGF antibody to feline NGF were measured using SPR (Surface Plasmon Resonance), Biacore 3000. Kinetics of association and dissociation of a felinized mAb with/from feline NGF were measured at different concentrations.
(In general: Surface plasmon resonance follows binding to a sensor surface in real time, without labels.)

Experiment [1] addresses NGF (species not stated). As to the kind of experiment: cell-based or functional assay.
For experiment [2], the target named is T2, canine beta-NGF (cNGF) (canine, UniProt Q29074 110-229 (pig entry)).
T2 construct: also called canine NGF; can NGF
T2 chain: T1 chain
In words: SPR (Biacore), cNGF binding; KD column of Table 7.

Experiment [3] concerns the target T2, canine beta-NGF (cNGF). In words: SPR (Biacore), cNGF binding.
Experiment [4] addresses T2, canine beta-NGF (cNGF). As to the kind of experiment: SPR (Biacore), KD column of Table 3.
Another experiment has as its target rat NGF (rat, UniProt P25427 122-241). As to the kind of experiment: cell-based or functional assay.
Experiment [5] deals with NGF (species not stated). In words: cell-based or functional assay. The source holds these as a separate data set.
Experiment [6] has as its target T2, canine beta-NGF (cNGF). As to the kind of experiment: SPR (Biacore).
Experiment [7] concerns the target T2, canine beta-NGF (cNGF). As to the kind of experiment: cell-based or functional assay.

The record followed here is patent publication US20220106391A1 (ZOETIS SERVICES, published 2022).

Broadly, the Kd is the free concentration of one partner at which half of the binding sites on the other are occupied at equilibrium, for simple one-to-one binding. As a reminder, the koff is a measure of how fast the partners let go of each other. Low readings indicate a long-lived complex, high ones a short-lived complex. By kon is commonly meant a measure of how fast the partners come together. The low end stands for slower complex formation, the high end for faster complex formation.

Residue numbers refer to the chain shown, from its start.

Sequence of rat NGF (P25427 122-241 limits assumed): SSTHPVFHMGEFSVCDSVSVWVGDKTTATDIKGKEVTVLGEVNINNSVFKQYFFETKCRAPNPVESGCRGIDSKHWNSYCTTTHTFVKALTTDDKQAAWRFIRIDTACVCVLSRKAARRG

B1: H1-23K643 (antibody, V domains shown)
VH: DVQLVESGGDLVQPGGSLRLTCVASGFTLTQYGINWVRQAPGKGLQWVAVIWATGATDYNSALKSRFTISRDNAKNTLYLQMNSLKTEDTATYYCARDGWWYATSWYFDVWGQGALVTVSS
VL: EIQMTQSPSSLSASPGDRVTITCKASQDINHYLNWYQQKPGKVPKLLIYYTSRLHSGVPSRFSGSGSGTDFTLTISSLEPEDAATYYCQQGDHFPRTFGGGT
notes: also called ZTS-082-2D
In turn, B1 yielded a Kd with feline NGF of 177 pM. The “IC50 (nM) (pERK-1/2, cell line expressing human TrkA)” value (“IC50 (nM)” for short) in the experiment with NGF (species not stated) [1] was found to be 1.48 nM.

B2: 182m43 (antibody, V domains shown)
VH: EVQLVESGGDLARPGGSLKLSCVVSGFTLTQYGINWVRQAPGKGLQWVTVIWATGATDYNSALKSRFTVSRDNAMNTVYLQMNSLRVEDTAVYYCARDGWWYATSWYFDVWGQGTLVTVSS
VL: DIVMTQTPLSLSVSPGEPASISCKASQDINHYLNWFRQKPDGTVKLLIYYTHSLHNGVPSRFSGSGSGTDFTLRISRVEADDAGVYYCQQGDHFPRTFGQGT
notes: 51 except in CDR2 (THSLHN); 51 as printed; also called Can-182-m43
In turn, B2 gave a Kd with canine beta-NGF (cNGF) [2] of 4.32 nM. In the experiment with canine beta-NGF (cNGF) [3], this molecule showed a Kd of 4.32 nM, a koff of 3.32e-06 s⁻¹ and a kon of 769 M⁻¹ s⁻¹.

B3: mAb 1B (ZTS-082) (antibody, IgG1a, V domains shown)
VH: B1 VH
VL: B2 VL with S14T, F36Y, R37L, H52S, S53R, N56S, A83V, Q100P
notes: Felinized IgG with feline heavy and kappa constant regions; also called ZTS-082-1B; H1-23 / KPL
For B3, in the experiment with feline NGF, binding was characterised by a dissociation constant (Kd) of 9.41 pM. Besides, the “IC50 (nM)” value with NGF (species not stated) [1] was 1.28 nM.

B4: 182m70 (antibody, V domains shown)
VH: B2 VH
VL: B2 VL with H52S, N56G
notes: 51 except in CDR2 (TSSLHG); 51 (CDR2 Pos. 1-6 = residues 51-56); also called Can-182-m70
In the experiment with canine beta-NGF (cNGF) [2], B4 yielded a Kd of 4.9 nM. In the experiment with canine beta-NGF (cNGF) [3], this molecule came in with a dissociation constant (Kd) of 4.9 nM, a koff of 9.46e-06 s⁻¹ and a kon of 1930 M⁻¹ s⁻¹.

B5: 182m75 (antibody, V domains shown)
VH: B2 VH
VL: B2 VL with H52S, N56V
notes: 51 except in CDR2 (TSSLHV); 51 (CDR2 Pos. 1-6 = residues 51-56); also called Can-182-m75
As for B5, the Kd in the experiment with canine beta-NGF (cNGF) [2] turned out to be 2.03 nM. In the experiment with canine beta-NGF (cNGF) [3], this molecule displayed a dissociation constant (Kd) of 2.03 nM, a koff of 8.99e-07 s⁻¹ and an association rate constant (kon) of 444 M⁻¹ s⁻¹.

B6: 182m72 (antibody, V domains shown)
VH: B2 VH
VL: B2 VL with H52S, N56Q
notes: 51 except in CDR2 (TSSLHQ); 51 (CDR2 Pos. 1-6 = residues 51-56); also called Can-182-m72
In turn, B6 had a Kd in the experiment with canine beta-NGF (cNGF) [2] of 0.0741 nM. In the experiment with canine beta-NGF (cNGF) [3], this molecule showed a Kd of 0.0741 nM, a koff of 2.79e-07 s⁻¹ and a kon of 3760 M⁻¹ s⁻¹.

B7: H3AQC23L1A02D9L2 (antibody, V domains shown)
VH: B2 VH
VL: B2 VL with K24R, N30S, H31N, Y50K, H52N, H55Q, N56T, D92S, H93T, F94L
notes: Caninized IgG
B7: the binding result with canine beta-NGF (cNGF) [4] is listed as “no binding”.

B8: H3AQC2301B12L1AL1L3 (ZTS-00103182) (antibody, V domains shown)
VH: B2 VH
VL: B2 VL with H52S, S53R, N56S
notes: Caninized IgG; 49 as printed runs on into CH1; the VL entry stops at FGQGT; also called ZTS-182; wt 182
In the experiment with canine beta-NGF (cNGF) [2], B8 had a Kd of 0.0027 nM. Also, in the experiment with rat NGF, the “IC50 nM (inhibition of neurite outgrowth, PC12 cells, rat NGF 10 ng/ml)” value turned out to be 0.21 nM and the “IC50 µg/ml (inhibition of neurite outgrowth, PC12 cells, rat NGF 10 ng/ml)” value stood at 0.031 µg/mL. Besides, in the experiment with NGF (species not stated) [5], the “IC50 nM (TF-1 proliferation inhibition, NGF 2.0 ng/ml)” value was determined as 0.046 nM and the “IC50 µg/ml (TF-1 proliferation inhibition, NGF 2.0 ng/ml)” value stood at 0.00693 µg/mL. The molecule further displayed a Kd with canine beta-NGF (cNGF) [6] of 0.061 nM. The “IC50 [nM] (TrkA cell based assay)” value with canine beta-NGF (cNGF) [7] is 1.26 nM.

B9: H733KPL (antibody, V domains shown)
VH: B1 VH with Q13K, I69M, K75R, A115T
VL: B2 VL with S14T, F36Y, R37L, H52S, S53R, N56S, A83V, Q100P
notes: also called ZTS-082-2E
As to B9, the affinity with feline NGF, expressed as Kd, was 0.458 pM. Moreover, in the experiment with NGF (species not stated) [1], the “IC50 (nM)” value turned out to be 1.34 nM.

B10: H1-23L3K36 (antibody, V domains shown)
VH: B1 VH
VL: DIVMTQTPLSLPVTPGEPASISCKASQDINHYLNWYLQKPGQSPRLLIYYTSRLHSGVPSRFSGSGSGTDFTLRISSVEADDVGVYYCQQGDHFPRTFGQGT
notes: also called ZTS-082-1C
Take B10: the Kd in the experiment with feline NGF turned out to be 916 pM. Also, in the experiment with NGF (species not stated) [1], the “IC50 (nM)” value worked out at 1.3 nM.

B11: 182m114 (antibody, V domains shown)
VH: B2 VH
VL: B2 VL with H52A, N56Q
notes: 51 except in CDR2 (TASLHQ); 51 (CDR2 Pos. 1-6 = residues 51-56); also called Can-182-m114
On to B11, for which, in the experiment with canine beta-NGF (cNGF) [2], the Kd was found to be 0.707 nM. In the experiment with canine beta-NGF (cNGF) [3], this molecule came in with a Kd of 0.707 nM, a koff of 1.27e-06 s⁻¹ and an on-rate constant (kon) of 1790 M⁻¹ s⁻¹.

B12: H733 L3-K36 (antibody, V domains shown)
VH: B1 VH with Q13K, I69M, K75R, A115T
VL: B10 VL
notes: also called ZTS-082-361
In the experiment with feline NGF, B12 came in with a Kd of 0.334 pM. In addition, the “IC50 (nM)” value in the experiment with NGF (species not stated) [1] worked out at 1.13 nM.
